Patent US20060110401A1, “Mixture of peptides from c and ns3 proteins of the hepatitis c virus and applications thereof” (priority 2002, published 2006)

Columns and labels:
[1] = molecular target: HLA-DRB4 (DRB4*0101) (human); test: competition binding
[2] = molecular target: HLA-DR3 (DRB1*0301) (human); test: competition binding
[3] = molecular target: HLA-DRB5 (DRB5*0101) (human); test: competition binding
[4] = molecular target: HLA-DR4 (DRB1*0401) (human); test: competition binding
[5] = molecular target: HLA-DR15 (DRB1*1501) (human); test: competition binding
[6] = molecular target: HLA-DR7 (DRB1*0701) (human); test: competition binding
[7] = molecular target: HLA-DR11 (DRB1*1101) (human); test: competition binding
[8] = molecular target: HLA-DRB3 (DRB3*0101) (human); test: competition binding
[9] = molecular target: HLA-DR1 (DRB1*0101) (human); test: competition ELISA, purified HLA II; tracer biotinylated HA 306-318

With “9N 1036-1055 (from UniProt P26664 1036-1055)” the IC50 [1] was 150 nM, the IC50 [2] was 6000 nM and the IC50 [3] was 10 nM. It also gave an IC50 [4] of 60 nM, an IC50 [5] of 10000 nM and an IC50 [6] of 1250 nM. For the same substance, the IC50 [7] was 163 nM and the IC50 [8] was 35000 nM.
Substance “28N 1524-1553 (peptide; other documents disagree on this pair)” has an IC50 [9] of 2 nM.
